Measured values published in patent US20250099534A1 (TECHNION RESEARCH AND DEVELOPMENT FOUNDATION, published 2025).
Starred links: 1 amine or outer side, 2 acyl side, 3 side chain; linkers in the order of their positions; H or OH if unused. Positions of bridges follow the written chain, without caps; N, C: chain ends. Primed or numbered codes have the meaning given here. No end group written: not given here. *: point of attachment. mClBz(3) = 3-(chloromethyl)benzoic acid, non-amino acid initiator forming a thioether with the C-terminal-region Cys, O=C(c1cccc(C[*:3])c1)[*:2]; mBz = 3-(methylene)benzoyl on the N-terminal amine, O=C(c1cccc(C[*:3])c1)[*:2]; Bn = c1ccc(C*)cc1; Acm = CC(=O)NC*

B1: 3 (peptide)
peptide: mBz-LCIWIGSSKNPYILCG-NH2
modifications: thioether N-15
SMILES: CC[C@H](C)[C@@H]1NC(=O)[C@H](Cc2c[nH]c3ccccc23)NC(=O)[C@H]([C@@H](C)CC)NC(=O)[C@H](CS)NC(=O)[C@H](CC(C)C)NC(=O)c2cccc(c2)CSC[C@@H](C(=O)NCC(N)=O)NC(=O)[C@H](CC(C)C)NC(=O)[C@H]([C@@H](C)CC)NC(=O)[C@H](Cc2ccc(O)cc2)NC(=O)[C@@H]2CCCN2C(=O)[C@H](CC(N)=O)NC(=O)[C@H](CCCCN)NC(=O)[C@H](CO)NC(=O)[C@H](CO)NC(=O)CNC1=O
notes: also called CP1-L2C; cyclic peptide 3
B2: 11 (peptide)
peptide: mBz-LLIWIGSSKNCYILCG-NH2
modifications: thioether N-15
SMILES: CC[C@H](C)[C@@H]1NC(=O)[C@H](Cc2c[nH]c3ccccc23)NC(=O)[C@H]([C@@H](C)CC)NC(=O)[C@H](CC(C)C)NC(=O)[C@H](CC(C)C)NC(=O)c2cccc(c2)CSC[C@@H](C(=O)NCC(N)=O)NC(=O)[C@H](CC(C)C)NC(=O)[C@H]([C@@H](C)CC)NC(=O)[C@H](Cc2ccc(O)cc2)NC(=O)[C@H](CS)NC(=O)[C@H](CC(N)=O)NC(=O)[C@H](CCCCN)NC(=O)[C@H](CO)NC(=O)[C@H](CO)NC(=O)CNC1=O
notes: also called CP1-P11C; cyclic peptide 11
B3: 7 (peptide)
peptide: mBz-LLIWICSSKNPYILCG-NH2
modifications: thioether N-15
SMILES: CC[C@H](C)[C@@H]1NC(=O)[C@H](Cc2c[nH]c3ccccc23)NC(=O)[C@H]([C@@H](C)CC)NC(=O)[C@H](CC(C)C)NC(=O)[C@H](CC(C)C)NC(=O)c2cccc(c2)CSC[C@@H](C(=O)NCC(N)=O)NC(=O)[C@H](CC(C)C)NC(=O)[C@H]([C@@H](C)CC)NC(=O)[C@H](Cc2ccc(O)cc2)NC(=O)[C@@H]2CCCN2C(=O)[C@H](CC(N)=O)NC(=O)[C@H](CCCCN)NC(=O)[C@H](CO)NC(=O)[C@H](CO)NC(=O)[C@H](CS)NC1=O
notes: also called CP1-G6C; cyclic peptide 7
B4: 6 (peptide)
peptide: mBz-LLIWCGSSKNPYILCG-NH2
modifications: thioether N-15
SMILES: CC[C@H](C)[C@@H]1NC(=O)[C@H](CC(C)C)NC(=O)[C@H](CC(C)C)NC(=O)c2cccc(c2)CSC[C@@H](C(=O)NCC(N)=O)NC(=O)[C@H](CC(C)C)NC(=O)[C@H]([C@@H](C)CC)NC(=O)[C@H](Cc2ccc(O)cc2)NC(=O)[C@@H]2CCCN2C(=O)[C@H](CC(N)=O)NC(=O)[C@H](CCCCN)NC(=O)[C@H](CO)NC(=O)[C@H](CO)NC(=O)CNC(=O)[C@H](CS)NC(=O)[C@H](Cc2c[nH]c3ccccc23)NC1=O
notes: also called CP1-I5C; cyclic peptide 6
B5: 5 (peptide)
peptide: mBz-LLICIGSSKNPYILCG-NH2
modifications: thioether N-15
SMILES: CC[C@H](C)[C@@H]1NC(=O)[C@H](CS)NC(=O)[C@H]([C@@H](C)CC)NC(=O)[C@H](CC(C)C)NC(=O)[C@H](CC(C)C)NC(=O)c2cccc(c2)CSC[C@@H](C(=O)NCC(N)=O)NC(=O)[C@H](CC(C)C)NC(=O)[C@H]([C@@H](C)CC)NC(=O)[C@H](Cc2ccc(O)cc2)NC(=O)[C@@H]2CCCN2C(=O)[C@H](CC(N)=O)NC(=O)[C@H](CCCCN)NC(=O)[C@H](CO)NC(=O)[C@H](CO)NC(=O)CNC1=O
notes: also called CP1-W4C; cyclic peptide 5
B6: 10 (peptide)
peptide: mBz-LLIWIGSSKCPYILCG-NH2
modifications: thioether N-15
SMILES: CC[C@H](C)[C@@H]1NC(=O)[C@H](Cc2c[nH]c3ccccc23)NC(=O)[C@H]([C@@H](C)CC)NC(=O)[C@H](CC(C)C)NC(=O)[C@H](CC(C)C)NC(=O)c2cccc(c2)CSC[C@@H](C(=O)NCC(N)=O)NC(=O)[C@H](CC(C)C)NC(=O)[C@H]([C@@H](C)CC)NC(=O)[C@H](Cc2ccc(O)cc2)NC(=O)[C@@H]2CCCN2C(=O)[C@H](CS)NC(=O)[C@H](CCCCN)NC(=O)[C@H](CO)NC(=O)[C@H](CO)NC(=O)CNC1=O
notes: also called CP1-N10C; cyclic peptide 10
B7: 4 (peptide)
peptide: mBz-LLCWIGSSKNPYILCG-NH2
modifications: thioether N-15
SMILES: CC[C@H](C)[C@@H]1NC(=O)[C@H](Cc2c[nH]c3ccccc23)NC(=O)[C@H](CS)NC(=O)[C@H](CC(C)C)NC(=O)[C@H](CC(C)C)NC(=O)c2cccc(c2)CSC[C@@H](C(=O)NCC(N)=O)NC(=O)[C@H](CC(C)C)NC(=O)[C@H]([C@@H](C)CC)NC(=O)[C@H](Cc2ccc(O)cc2)NC(=O)[C@@H]2CCCN2C(=O)[C@H](CC(N)=O)NC(=O)[C@H](CCCCN)NC(=O)[C@H](CO)NC(=O)[C@H](CO)NC(=O)CNC1=O
notes: also called CP1-I3C; cyclic peptide 4
B8: 9 (peptide)
peptide: mBz-LLIWIGSCKNPYILCG-NH2
modifications: thioether N-15
SMILES: CC[C@H](C)[C@@H]1NC(=O)[C@H](Cc2c[nH]c3ccccc23)NC(=O)[C@H]([C@@H](C)CC)NC(=O)[C@H](CC(C)C)NC(=O)[C@H](CC(C)C)NC(=O)c2cccc(c2)CSC[C@@H](C(=O)NCC(N)=O)NC(=O)[C@H](CC(C)C)NC(=O)[C@H]([C@@H](C)CC)NC(=O)[C@H](Cc2ccc(O)cc2)NC(=O)[C@@H]2CCCN2C(=O)[C@H](CC(N)=O)NC(=O)[C@H](CCCCN)NC(=O)[C@H](CS)NC(=O)[C@H](CO)NC(=O)CNC1=O
notes: also called CP1-S8C; cyclic peptide 9
B9: 12 (peptide)
peptide: mBz-LLIWIGSSKNPCILCG-NH2
modifications: thioether N-15
SMILES: CC[C@H](C)[C@@H]1NC(=O)[C@H](Cc2c[nH]c3ccccc23)NC(=O)[C@H]([C@@H](C)CC)NC(=O)[C@H](CC(C)C)NC(=O)[C@H](CC(C)C)NC(=O)c2cccc(c2)CSC[C@@H](C(=O)NCC(N)=O)NC(=O)[C@H](CC(C)C)NC(=O)[C@H]([C@@H](C)CC)NC(=O)[C@H](CS)NC(=O)[C@@H]2CCCN2C(=O)[C@H](CC(N)=O)NC(=O)[C@H](CCCCN)NC(=O)[C@H](CO)NC(=O)[C@H](CO)NC(=O)CNC1=O
notes: also called CP1-Y12C; cyclic peptide 12
B10: 8 (peptide)
peptide: mBz-LLIWIGCSKNPYILCG-NH2
modifications: thioether N-15
SMILES: CC[C@H](C)[C@@H]1NC(=O)[C@H](Cc2c[nH]c3ccccc23)NC(=O)[C@H]([C@@H](C)CC)NC(=O)[C@H](CC(C)C)NC(=O)[C@H](CC(C)C)NC(=O)c2cccc(c2)CSC[C@@H](C(=O)NCC(N)=O)NC(=O)[C@H](CC(C)C)NC(=O)[C@H]([C@@H](C)CC)NC(=O)[C@H](Cc2ccc(O)cc2)NC(=O)[C@@H]2CCCN2C(=O)[C@H](CC(N)=O)NC(=O)[C@H](CCCCN)NC(=O)[C@H](CO)NC(=O)[C@H](CS)NC(=O)CNC1=O
notes: also called CP1-S7C; cyclic peptide 8
B11: 14 (peptide)
peptide: mBz-C(Acm)LIWIGSSKNPYILCG-NH2
modifications: thioether N-15
SMILES: CC[C@H](C)[C@@H]1NC(=O)[C@H](Cc2c[nH]c3ccccc23)NC(=O)[C@H]([C@@H](C)CC)NC(=O)[C@H](CC(C)C)NC(=O)[C@H](CSCNC(C)=O)NC(=O)c2cccc(c2)CSC[C@@H](C(=O)NCC(N)=O)NC(=O)[C@H](CC(C)C)NC(=O)[C@H]([C@@H](C)CC)NC(=O)[C@H](Cc2ccc(O)cc2)NC(=O)[C@@H]2CCCN2C(=O)[C@H](CC(N)=O)NC(=O)[C@H](CCCCN)NC(=O)[C@H](CO)NC(=O)[C@H](CO)NC(=O)CNC1=O
notes: Acm-protected precursor of cyclic peptide 2; also called CP1-L1C-Acm; cyclic peptide 14
B12: 13 (peptide)
peptide: mBz-LLIWIGSSKNPYCLCG-NH2
modifications: thioether N-15
SMILES: CC[C@H](C)[C@@H]1NC(=O)[C@H](Cc2c[nH]c3ccccc23)NC(=O)[C@H]([C@@H](C)CC)NC(=O)[C@H](CC(C)C)NC(=O)[C@H](CC(C)C)NC(=O)c2cccc(c2)CSC[C@@H](C(=O)NCC(N)=O)NC(=O)[C@H](CC(C)C)NC(=O)[C@H](CS)NC(=O)[C@H](Cc2ccc(O)cc2)NC(=O)[C@@H]2CCCN2C(=O)[C@H](CC(N)=O)NC(=O)[C@H](CCCCN)NC(=O)[C@H](CO)NC(=O)[C@H](CO)NC(=O)CNC1=O
notes: also called CP1-I13C; cyclic peptide 13

What follows are binders tested against T1, biotinylated-Lys63 linked Di-Ub (UniProt P0CG47 1-76, isopeptide bond between the C-terminal Gly of the distal Ub and Lys63 of the proximal Ub; biotin tag at the N-terminus of the distal Ub) (assay: fluorescence-based competitive assay: unlabeled peptide, 5.0 molar equiv., pre-bound to biotinylated Lys63-linked Di-Ub on a streptavidin plate, then competed with CP1-FITC (1 equiv.); signal change relative to 1 (CP1), Y=[1-(a/b)]x100).
T1 construct: mature; Immobilised on streptavidin plates or on the SPR CAPture chip; also called K63-linked Di-Ub; biotin-Lys63 linked Di-Ub
Procedure: Streptavidin-coated microplate (96 well plate) was washed with HEPES buffer (50 Mm HEPES, 150 Mm NaCl, pH 7.30) and then in each well incubated 1 μg of biotinylated-Lys63-linked Di-Ub in 100 μl of the same buffer at RT. for 30 min. Additional wells were kept without biotinylated-Lys63-Di-Ub for blank subtraction. After the washing step, peptide standard (CP1) and unlabeled peptides were incubated (5.0 molar equivalent relative to biotin-Lys63-linked Di-Ub) at RT for 30 minutes for saturation binding to the target. Then 1 molar equivalent of FITC labeled peptide-standard (CP1-FITC) relative to biotinylated-Lys63-linked Di-Ub was incubated to compete with unlabeled peptides at RT for 30 min. After releasing bounded peptides on treatment with 6 M Guanidinium chloride (Gnd·HCl), the fluorescence values were measured (λex=480 nm and λem=525 nm). These values were normalized and then calculated the relative change in binding with the following formula:
Y=[1−(a/b)]×100 [0289] Where Y=Signal change relative to the standard (CP1) (in terms of %). [0290] a=Measured signal value of each peptide candidate (in Relative Fluorescence Units). [0291] b=Measured signal value of standard peptide (CP1). The dissociation constant (KD) of fluorescein-labeled peptide (CP1-FITC) was calculated in accordance with the literature procedure (Vamisetti G B et al., 2021).

Binding result, binds:
B1
B2
B3
B4
B5
B6
{mClBz(3)}-C(CH2C10H7)LIWIGSSKNPYILCG (bridge N-15; not fully specified (C-terminus, bridges)) [cyclic peptide 18, CP1-L1C-CH2C10H7]
B7
B8
B9
B10
{mClBz(3)}-C(CH3)LIWIGSSKNPYILCG (bridge N-15; not fully specified (C-terminus, bridges)) [cyclic peptide 15, CP1-L1C-CH3]
{mClBz(3)}-C(CH2CONH2)LIWIGSSKNPYILCG (bridge N-15; not fully specified (C-terminus, bridges)) [cyclic peptide 17, CP1-L1C-CH2CONH2]
B11
{mClBz(3)}-C(Bn)LIWIGSSKNPYILCG (bridge N-15; not fully specified (C-terminus, bridges)) [cyclic peptide 16, CP1-L1C-CH2C6H5]
B12
